{"source": "patent US7820142B2", "about": "“Immunogenic glycopeptides, screening, preparation and uses” (priority 2004, dated 2010)", "key": {"CD4+ T lymphocytes": {"system": "CD4+ T lymphocytes", "format": "cell-based, human", "conditions": "for difference of response between tuberculosis patients and vaccinated controls (in words): 18 patients versus 12 BCG-vaccinated controls"}, "[1]": {"system": "guinea pigs immunized with live BCG", "format": "in vivo, guinea pig", "conditions": "for loss of antigenic activity during digestion with α-mannosidase: 0.2 μg intradermal"}, "[2]": {"system": "guinea pigs immunized with heat-inactivated BCG", "format": "in vivo, guinea pig"}, "T lymphocytes": {"system": "T lymphocytes", "experiment": "in vitro lymphocyte proliferation assay", "format": "cell-based", "text": "The conditions of the assay are those described in Horn et al., mentioned above."}, "[3]": {"system": "guinea pigs immunized with the plasmids pAG831 or pAG832", "experiment": "delayed-type hypersensitivity assay, guinea pigs immunized with naked DNA encoding Apa", "conditions": "guinea pig, in vivo"}, "[4]": {"system": "CD4+ T lymphocytes originating from animals infected with M. tuberculosis or immunized with BCG", "conditions": "cited from earlier work"}, "[5]": {"system": "guinea pigs immunized with the Apa fusion peptide", "experiment": "delayed hypersensitivity reactions, guinea pigs immunized with the Apa fusion peptide", "format": "in vivo, guinea pig"}, "[6]": {"conditions": "guinea pigs immunized with live BCG"}}, "note": "“Also recorded” adds a separate entry of the source. Like-named read-outs stand apart in the source and are kept apart here. No end group written: not given here.", "data": [{"molecule": "H-DPEPAPPVPTTAASPPSTAAAPPAPATPVAPPPPAPAAAT-NH2 [glycosylated Apa peptide]", "values": [{"measurement": "stimulation of CD4+ lymphocytes from the controls", "setting": "CD4+ T lymphocytes", "value": "does not stimulate"}, {"measurement": "proportion of tuberculosis patients positive in the assay", "setting": "CD4+ T lymphocytes; 18 tuberculosis patients, six days stimulation", "value": "13/18"}]}, {"molecule": "Lip: mannosylated glycopeptide purified from M. tuberculosis culture medium, derived from the protein encoded by the Rv1796 gene (SEQ ID NO:3) (Ac-TIPTTETPPPPQTVTLSPVPPQTVTVIPAPPPEEG; also: mannosylated; listed as Mycobacterium tuberculosis)", "values": [{"measurement": "erythema reaction, peptide treated with subtilisin", "setting": "[1]; 0.02 μg in 0.1 ml", "value": "negative"}, {"measurement": "erythema reaction, peptide treated with α-mannosidase", "setting": "[1]; 0.02 μg in 0.1 ml", "value": "negative"}, {"measurement": "antigenic activity after deglycosylation", "setting": "[1]; after α-mannosidase for 24 h at 37° C.", "value": "less than 30 000 TU/mg"}, {"measurement": "antigenic activity", "setting": "[1]; [6]", "value": "1 000 000 TU/mg"}, {"measurement": "delayed-type hypersensitivity reaction (in words)", "setting": "[1]; [6]", "value": "very active"}, {"measurement": "antigenic activity after the action of subtilisin", "setting": "[1]; subtilisin 24 h at 37° C.", "value": "abolishes the antigenic activity"}, {"measurement": "activity relative to PPD at an equivalent amount of proteins", "setting": "[1]; versus standard purified proteins from M. tuberculosis (PPD)", "value": "at least 10 times"}, {"measurement": "loss of antigenic activity after α-mannosidase", "setting": "[1]; α-mannosidase for 24 h at 37° C.", "value": "more than 95%"}, {"measurement": "delayed-type hypersensitivity reaction (in words)", "setting": "[2]", "value": "relatively inactive"}, {"measurement": "T-lymphocyte proliferation", "setting": "T lymphocytes; T lymphocytes treated with an antibody directed against CD4 molecules", "value": "marginal"}, {"measurement": "T-lymphocyte proliferation", "setting": "T lymphocytes; glycopeptide treated with α-mannosidase", "value": "marginal"}, {"measurement": "T-lymphocyte proliferation", "setting": "T lymphocytes; native glycopeptide", "value": "dependent on the peptide concentration"}]}, {"molecule": "Native Apa: protein secreted by M. tuberculosis, product of the Rv 1860 gene, purified from the culture supernatant (protein, UniProt P9WIR7 40-325, looked up, glycosylated native, protein secreted by M. tuberculosis, product of the Rv 1860 gene, purified from the culture supernatant) Alanine and proline-rich …: DPEPAPPVPTTAASPPSTAAAPPAPATPVAPPPPAAANTPNAQPGDPNAAPPPADPNAPPPPVIAPNAPQPVRIDNPVGGFSFALPAGWVESDAAHFDYGSALLSKTTGDPPFPGQPPPVANDTRIVLGRLDQKLYASAEATDSKAAARLGSDMGEFYMPYPGTRINQETVSLDANGVSGSASYYEVKFSDPSKPNGQIWTGVIGSPAANAPDAGPPQRWFVVWLGTANNPVDKGAAKALAESIRPLVAPPPAPAPAPAEPAPAPAPAGEVAPTPTTPTPQRTLPA", "values": [{"measurement": "delayed-type hypersensitivity / CD4+ T lymphocyte response (in words)", "setting": "[3]", "value": "equivalent; also recorded: develop, in the vast majority of cases, an immune response"}, {"measurement": "loss of antigenicity after demannosylation", "setting": "[4]; α-mannosidase, TFMS or expression in E. coli", "value": 100, "unit": "fold"}, {"measurement": "loss of antigenic activity", "setting": "[1]; Apa molecules on which there remain 3 to 6 mannose residues", "value": 86, "unit": "%"}, {"measurement": "loss of antigenic activity during digestion with α-mannosidase", "setting": "[1]; digestion 1 h", "value": 66, "unit": "%"}, {"measurement": "loss of antigenic activity during digestion with α-mannosidase", "setting": "[1]; digestion 4 h", "value": 86, "unit": "%"}, {"measurement": "delayed-type hypersensitivity reaction (in words)", "setting": "[1]; [6]", "value": "antigenic; also recorded: show a delayed-type hypersensitivity reaction; also recorded: considerable"}, {"measurement": "sensitization (in words)", "setting": "[5]", "value": "identical"}, {"measurement": "difference of response between tuberculosis patients and vaccinated controls (in words)", "setting": "CD4+ T lymphocytes", "value": "stimulates more frequently the response from the patients"}]}, {"molecule": "E. Coli recombinant Apa: deglycosylated recombinant Apa produced in E. coli (protein, UniProt P9WIR7 40-325, looked up, recombinant, non-glycosylated, E. coli) Alanine and proline-rich …: DPEPAPPVPTTAASPPSTAAAPPAPATPVAPPPPAAANTPNAQPGDPNAAPPPADPNAPPPPVIAPNAPQPVRIDNPVGGFSFALPAGWVESDAAHFDYGSALLSKTTGDPPFPGQPPPVANDTRIVLGRLDQKLYASAEATDSKAAARLGSDMGEFYMPYPGTRINQETVSLDANGVSGSASYYEVKFSDPSKPNGQIWTGVIGSPAANAPDAGPPQRWFVVWLGTANNPVDKGAAKALAESIRPLVAPPPAPAPAPAEPAPAPAPAGEVAPTPTTPTPQRTLPA", "values": [{"measurement": "delayed-type hypersensitivity / CD4+ T lymphocyte response (in words)", "setting": "[3]", "value": "of the same strength as the responses observed with the glycosylated native antigen"}, {"measurement": "delayed-type hypersensitivity / CD4+ T lymphocyte response (in words)", "setting": "[3]; listed as E. coli rApa", "value": "equivalent"}, {"measurement": "delayed-type hypersensitivity reaction (in words)", "setting": "[1]; guinea pigs immunized with live BCG, listed as molecules produced in E. coli", "value": "very weak or absent"}, {"measurement": "delayed-type hypersensitivity reaction (in words)", "setting": "[1]; guinea pigs immunized with live BCG, listed as non-glycosylated recombinant Apa produced in E. coli", "value": "no reaction or develop a greatly decreased reaction"}]}, {"molecule": "glycosylated Apa produced by Mycobacterium smegmatis: Apa produced by M. smegmatis, overall mannose composition slightly different from that of M. tuberculosis Apa (protein, UniProt P9WIR7 40-325, looked up, glycosylated, produced in M. smegmatis) Alanine and proline-rich …: DPEPAPPVPTTAASPPSTAAAPPAPATPVAPPPPAAANTPNAQPGDPNAAPPPADPNAPPPPVIAPNAPQPVRIDNPVGGFSFALPAGWVESDAAHFDYGSALLSKTTGDPPFPGQPPPVANDTRIVLGRLDQKLYASAEATDSKAAARLGSDMGEFYMPYPGTRINQETVSLDANGVSGSASYYEVKFSDPSKPNGQIWTGVIGSPAANAPDAGPPQRWFVVWLGTANNPVDKGAAKALAESIRPLVAPPPAPAPAPAEPAPAPAPAGEVAPTPTTPTPQRTLPA", "values": [{"measurement": "decrease of antigenic activity versus Apa produced by M. tuberculosis", "setting": "[4]", "value": "approximately 10 fold"}]}, {"molecule": "Deglycosylated Apa: deglycosylated Apa protein prepared as described in example 1 (digestion with α-mannosidase) (protein, UniProt P9WIR7 40-325, looked up, deglycosylated) Alanine and proline-rich …: DPEPAPPVPTTAASPPSTAAAPPAPATPVAPPPPAAANTPNAQPGDPNAAPPPADPNAPPPPVIAPNAPQPVRIDNPVGGFSFALPAGWVESDAAHFDYGSALLSKTTGDPPFPGQPPPVANDTRIVLGRLDQKLYASAEATDSKAAARLGSDMGEFYMPYPGTRINQETVSLDANGVSGSASYYEVKFSDPSKPNGQIWTGVIGSPAANAPDAGPPQRWFVVWLGTANNPVDKGAAKALAESIRPLVAPPPAPAPAPAEPAPAPAPAGEVAPTPTTPTPQRTLPA", "values": [{"measurement": "delayed-type hypersensitivity / CD4+ T lymphocyte response (in words)", "setting": "[3]", "value": "of the same strength as the responses observed with the glycosylated native antigen"}, {"measurement": "delayed-type hypersensitivity reaction (in words)", "setting": "[1]; [6]", "value": "very weak or absent"}, {"measurement": "sensitization (in words)", "setting": "[5]", "value": "identical"}, {"measurement": "difference of response between tuberculosis patients and vaccinated controls (in words)", "setting": "CD4+ T lymphocytes", "value": "this difference between the groups is lost"}]}]}
